Data on two molecules can be found in PMC3470543, “Effects of the Missense Mutations in Canine BRCA2 on BRC Repeat 3 Functions and Comparative Analyses between Canine and Human BRC Repeat 3” (PLoS ONE, 2012).

The target in the test is T1, recombinant full-length human RAD51 (Bio Academia) (human, UniProt Q06609 1-339).
T1 construct: human RAD51 recombinase, recombinant full-length protein; also called hRAD51; source: bought: Bio Academia
T1 sequence (looked up): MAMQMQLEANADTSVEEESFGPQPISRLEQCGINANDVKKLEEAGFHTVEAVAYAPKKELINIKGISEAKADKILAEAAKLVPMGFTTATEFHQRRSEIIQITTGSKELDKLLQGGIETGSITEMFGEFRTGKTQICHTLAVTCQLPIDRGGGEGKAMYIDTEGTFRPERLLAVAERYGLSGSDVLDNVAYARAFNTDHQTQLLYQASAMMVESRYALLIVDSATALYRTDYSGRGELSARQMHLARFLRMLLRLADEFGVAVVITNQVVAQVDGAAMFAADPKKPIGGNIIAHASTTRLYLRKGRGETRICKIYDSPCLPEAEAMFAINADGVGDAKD
Put plainly: pull-down; 300 nM GST-fused peptides with 53.6 nM hRAD51 in 50 mM Tris pH 8.0, 150 mM NaCl, 1 mM EDTA, 1 mM DTT, 4°C, 1 h; captured on glutathione sepharose 4B; western blot with anti-RAD51. The following applies: both partners purified.

B1: GST-fused wild-type canine BRC3 (cBRC3) (aa 1410-1482) peptide (domain or fragment, UniProt Q8MKI9 1410-1482, looked up)
chain: GQNIKDFDTFYLSFQTASRKNIRVSKESLNKARSLLNQKWTEEELNNFSDSLNSELLPGIDIKKTDISNHEVI
notes: BRC repeat 3 region of canine BRCA2, aa 1410-1482; also called GST-cBRC3; wild-type cBRC3; source: Rosetta II cells (pGEX6p-1), purified (glutathione sepharose 4B)
As to B1, the binding result is “binds”.

B2: GST-fused K1435R mutant canine BRC3 (aa 1410-1482) peptide (domain or fragment, UniProt Q8MKI9 1410-1482, looked up)
chain: GQNIKDFDTFYLSFQTASRKNIRVSRESLNKARSLLNQKWTEEELNNFSDSLNSELLPGIDIKKTDISNHEVI
notes: BRC repeat 3 region of canine BRCA2, aa 1410-1482, with the mammary tumor-derived mutation K1435R; Mutation reported from canine mammary tumor samples; also called K1435R mutant cBRC3; GST-cBRC3 with the K1435R mutation; source: Rosetta II cells (pGEX6p-1), purified (glutathione sepharose 4B)
For the molecule B2, the binding result is given as “binds”.
